How the values were obtained:
human thrombin (human) [1] = target: human thrombin (human)
human thrombin (human) [2] = target: human thrombin (human); remark: listed apart in the source

Serp-1, secreted myxoma viral serpin (recombinant) (from UniProt P12393 1-369) (natural protein)
inhibition of thrombin activity (chromogenic substrate S-2238), 19 ng Serp-1 in the presence of heparin (0.2 IU), thrombin 0.002 NIH units (human thrombin (human) [1]): 75% | inhibition of thrombin activity (chromogenic substrate S-2238), no heparin, thrombin 0.002 NIH units, Serp-1 1250, 600 and 300 ng (75%, 65%, 25%); no inhibition at or below 150 ng (human thrombin (human) [1]): 75% | inhibition of thrombin (0.125 NIH units) by Serp-1 at 500 ng over 1 to 20 minutes, no heparin, discontinuous chromogenic assay (human thrombin (human) [2]): 86%

Reference: paper PMC2570549
